Data published in patent US20240043495A1, “DSG2 COMPOSITIONS AND METHODS FOR THE TREATMENT OF COVID-19” (priority 2020, published 2024).

Columns and labels:
Anti-DSG2 antibody [1] = assay: anti-DSG2 antibody MSD assay; inhibition of the signal of anti-DSG2 antibody at 1000 ng/mL (control)
Anti-DSG2 antibody [2] = assay: anti-DSG2 antibody MSD assay; inhibition of the signal of anti-DSG2 antibody at 200 ng/mL (control)
[3] = system: human iPSC cardiomyocytes; assay: CiPA multielectrode array (MEA) assay, cardiomyocyte sodium spike; type: cell-based; conditions: voltage (μV) at 0-96 hours; antibodies/IgG 0.5 μg/mL; lidocaine 10 μM; FIG. 5
Experimental: To determine the effect of anti-DSG2 antibodies in cardiomyocytes, the cardiac in vitro proarrhythmia (CiPA) assay was performed (Sager et al. Am Heart J 2014; 167:292-300; the contents of which are herein incorporated by reference in its entirety). CiPA is envisioned to consist of four components: (1) an evaluation of the effects of test agents on cardiac ion channel assays; (2) in silico modeling of the cardiac action potential based on the ion channel results to integrate the data with cardiac function; (3) experimental measurement of test agent effects in human ventricular myocytes to confirm the modeling result; and (4) scoring the results. […] The sodium spike quantified below is a measurement of the specific sodium channel current in the cardiomyocyte and is also described in Blinova K, et al. Cell Rep. […] The parameters evaluated include measuring a change in the spike in the component of electrical signal propagation (e.g. sodium spike) and cell index—a function of cell impedance and cell number. […]
Commercially available anti-DSG2 antibodies were tested in the cardiomyocyte CiPA assay. […] The voltage (μV) is measured at time intervals of 0, 1 hour, 12 hours, 24 hours, 48 hours, 72 hours, and 96 hours. […]

[4] = system: human iPSC cardiomyocytes; assay: iPSC-derived cardiomyocyte MEA assay, cell index; type: cell-based; conditions: antibodies 0.00005 to 5 μg/mL; lidocaine 3 to 100 μM
Experimental: To determine the effect of anti-DSG2 antibodies in cardiomyocytes, the cardiac in vitro proarrhythmia (CiPA) assay was performed (Sager et al. Am Heart J 2014; 167:292-300; the contents of which are herein incorporated by reference in its entirety). CiPA is envisioned to consist of four components: (1) an evaluation of the effects of test agents on cardiac ion channel assays; (2) in silico modeling of the cardiac action potential based on the ion channel results to integrate the data with cardiac function; (3) experimental measurement of test agent effects in human ventricular myocytes to confirm the modeling result; and (4) scoring the results. The multielectrode array (MEA) assay is a component of CiPA which uses human induced pluripotent stem cell (iPSC)-derived cardiomyocytes to evaluate two-dimensional excitation propagation by recording spontaneous ECG-like field potentials. The sodium spike quantified below is a measurement of the specific sodium channel current in the cardiomyocyte and is also described in Blinova K, et al. Cell Rep. 2018 Sep. 25; 24(13):3582-3592 (the contents of which are herein incorporated by reference in its entirety). […] The parameters evaluated include measuring a change in the spike in the component of electrical signal propagation (e.g. sodium spike) and cell index—a function of cell impedance and cell number. […]

[5] = system: anti-DSG2 antibodies in sera of post-COVID-19 patients; assay: Electrochemical immunoassay: blocking of post-COVID-19 patient sera binding to the DSG2 extracellular domain; design: species or system human; conditions: fusion polypeptide 10 μg/mL, post-COVID-19 patient sera 10% (v/v), FIG. 3
Experimental: DSG2 fusion polypeptides were investigated for the ability to block the binding of anti-DSG2 antibodies in sera of post-COVID-19 patients to the DSG2 extracellular domain in an electrochemical immunoassay. The fusion polypeptides were added to a final concentration of 10 μg/mL and patient sera were used at a final concentration of 10% (v/v). The results are shown in the series of bar charts in FIG. 3, where the numbers 001, 002, 003, 004, 005 and 006 indicate individual post-COVID-19 patient serum samples.
In FIG. 3, the first data series from the left is for DSG2FP #1 (described above as amino acids 49-608 of SEQ ID NO:30; Linker (IEGRMD (SEQ ID NO: 28)); amino acids 100-330 of IgG1 (SEQ ID NO: 4). The second data series from the left is for DSG2(50-602)-6xHis, which is a fusion polypeptide of DSG2 amino acids 50-602 of SEQ ID NO: 1 (complete extracellular domain) to a hexahistidine peptide tag. The third data series from the left is for a combination of fusion polypeptides which includes EC1(50-155)-6xHis, a fusion of DSG2 amino acids 50-155 of SEQ ID NO: 1 (EC1) to a hexahistidine peptide tag and EC2(151-268)-6xHis, a fusion of DSG2 amino acids 151-268 of SEQ ID NO: 1 (EC2) to a hexahistidine peptide tag. The fourth data series from the left is for EA(491-602)-6xHis, a fusion of DSG2 amino acids 491-602 of SEQ ID NO: 1 (EA) to a hexahistidine peptide tag. […]

## recombinant human desmoglein-2 Fc chimera protein, CF (R&D Systems) (Fc fusion)
Anti-DSG2 antibody [1]
  % inhibition: 88.4%
Anti-DSG2 antibody [2]
  % inhibition: 63.8%

## CCN(CC)CC(=O)Nc1c(C)cccc1C [Lidocaine, lidocaine]
[3]
  effect on cardiomyocyte sodium spike: dampen the sodium spike
[4]
  effect on cell index (in words): marked reduction in cell index and likely cell death

B1: EA(491-602)-6xHis: fusion of DSG2 amino acids 491-602 of SEQ ID NO: 1 (EA) to a hexahistidine peptide tag (protein, listed as Homo sapiens)
chain: DINDNCPTLIEPVQTICHDAEYVNVTAEDLDGHPNSGPFSFSVIDKPPGMAEKWKIARQESTSVLLQQSEKKLGRSEIQFLISDNQGFSCPEKQVLTLTVCECLHGSGCREA
modifications: C-terminal 6xHis tag
[5]
  blocking activity (in words): some effectiveness in blocking activity

B2: DSG2(50-602)-6xHis: fusion polypeptide of DSG2 amino acids 50-602 of SEQ ID NO: 1 (complete extracellular domain) to a hexahistidine peptide tag (protein, listed as Homo sapiens)
chain: AWITAPVALREGEDLSKKNPIAKIHSDLAEERGLKITYKYTGKGITEPPFGIFVFNKDTGELNVTSILDREETPFFLLTGYALDARGNNVEKPLELRIKVLDINDNEPVFTQDVFVGSVEELSAAHTLVMKINATDADEPNTLNSKISYRIVSLEPAYPPVFYLNKDTGEIYTTSVTLDREEHSSYTLTVEARDGNGEVTDKPVKQAQVQIRILDVNDNIPVVENKVLEGMVEENQVNVEVTRIKVFDADEIGSDNWLANFTFASGNEGGYFHIETDAQTNEGIVTLIKEVDYEEMKNLDFSVIVANKAAFHKSIRSKYKPTPIPIKVKVKNVKEGIHFKSSVISIYVSESMDRSSKGQIIGNFQAFDEDTGLPAHARYVKLEDRDNWISVDSVTSEIKLAKLPDFESRYVQNGTYTVKIVAISEDYPRKTITGTVLINVEDINDNCPTLIEPVQTICHDAEYVNVTAEDLDGHPNSGPFSFSVIDKPPGMAEKWKIARQESTSVLLQQSEKKLGRSEIQFLISDNQGFSCPEKQVLTLTVCECLHGSGCREA
modifications: C-terminal hexahistidine tag
[5]; 100% inhibition = complete blocking
  blocking activity (% inhibition): at least 70%
